Measurements as given in article doi:10.1101/2023.07.07.548106, “CXCL17 binds efficaciously to glycosaminoglycans with the potential to modulate chemokine signalling” (bioRxiv, 2023).

Target: the molecule itself
Experiment: reducing SDS-PAGE and Western blot; serial dilutions of recombinant CXCL17 (24-119), 1.25-10 uM, on reducing 12% Bis-Tris SDS-PAGE, blotted with anti-CXCL17; bands of 14 kDa and 28 kDa read as monomer and dimer; 28 kDa species at 5 uM and above

B1: recombinant human CXCL17 (24-119) (natural protein, UniProt Q6UXB2 24-119, looked up)
chain: LNPGVARGHRDRGQASRRWLQEGGQECECKDWFLRAPRRKFMTVSGLPKKQCPCDHFKGNVKKTRHQRHHRKPNKHSRACQQFLKQCQLRSFALPL
notes: human CXCL17, residues Leu24-Leu119 of the 119-residue precursor (Q6UXB2), without the predicted signal peptide; the commercially available form; also called Leu24-Leu119 form of CXCL17; source: bought: R&D Systems; produced in E. coli
- ratio of monomer:dimer: 3 monomer:dimer
- stoichiometry N: 2
